# From publication PMC3887213 (2013)
# B1: LRRK2 RocCOR tandem domain (LexA-BD bait, wild type) [human] / itself (parent complex)
# chain: KAVPYNRMKLMIVGNTGSGKTTLLQQLMKTKKSDLGMQSATVGIDVKDWPIQIRDKRKRDLVLNVWDFAGREEFYSTHPHFMTQRALYLAVYDLSKGQAEVDAMKPWLFNIKARASSSPVILVGTHLDVSDEKQRKACMSKITKELLNKRGFPAIRDYHFVNATEESDALAKLRKTIINESLNFKIRDQLVVGQLIPDCYVELEKIILSERKNVPIEFPVIDRKRLLQLVRENQLQLDENELPHAVHFLNESGVLLHFQDPALQLSDLYFVEPKWLCKIMAQILTVKVEGCPKHPKGIISRRDVEKFLSKKRKFPKNYMSQYFKLLEKFQIALPIGEEYLLVPSSLSDHRPVIELPHCENSEIIIRLYEMPYFPMGFWSRLINRLLEISPYMLSGRERALRPNRMYWRQGIYL
# Variants of: B1
# Assay: quantitative yeast two-hybrid (Q-YTH); n = 6; read off a plot
row,Variant,percent of parent
1,KAVPYNRMKLMIVGNAGSGKTTLLQQLMKTKKSDLGMQSATVGIDVKDWPIQIRDKRKRDLVLNVWDFAGREEFYSTHPHFMTQRALYLAVYDLSKGQAEVDAMKPWLFNIKARASSSPVILVGTHLDVSDEKQRKACMSKITKELLNKRGFPAIRDYHFVNATEESDALAKLRKTIINESLNFKIRDQLVVGQLIPDCYVELEKIILSERKNVPIEFPVIDRKRLLQLVRENQLQLDENELPHAVHFLNESGVLLHFQDPALQLSDLYFVEPKWLCKIMAQILTVKVEGCPKHPKGIISRRDVEKFLSKKRKFPKNYMSQYFKLLEKFQIALPIGEEYLLVPSSLSDHRPVIELPHCENSEIIIRLYEMPYFPMGFWSRLINRLLEISPYMLSGRERALRPNRMYWRQGIYL [chain 1 T16A],~93%
2,KAVPYNRMKLMIVGNDGSGKTTLLQQLMKTKKSDLGMQSATVGIDVKDWPIQIRDKRKRDLVLNVWDFAGREEFYSTHPHFMTQRALYLAVYDLSKGQAEVDAMKPWLFNIKARASSSPVILVGTHLDVSDEKQRKACMSKITKELLNKRGFPAIRDYHFVNATEESDALAKLRKTIINESLNFKIRDQLVVGQLIPDCYVELEKIILSERKNVPIEFPVIDRKRLLQLVRENQLQLDENELPHAVHFLNESGVLLHFQDPALQLSDLYFVEPKWLCKIMAQILTVKVEGCPKHPKGIISRRDVEKFLSKKRKFPKNYMSQYFKLLEKFQIALPIGEEYLLVPSSLSDHRPVIELPHCENSEIIIRLYEMPYFPMGFWSRLINRLLEISPYMLSGRERALRPNRMYWRQGIYL [chain 1 T16D],~97%

# Results, then the variant that gave them:
row,percent of parent,Variant
1,~110%,KAVPYNRMKLMIVGNTGSGKTTLLQQLMKTKKSDLGMQSATVGIDVKDWPIQIRDKRKRDLVLNVWDFAGREEFYSTHPHFMTQRALYLAVYDLSKGQAEVDAMKPWLFNIKARASSSPVILVGTHLDVSDEKQRKACMSKITKELLNKRGFPAIRDYHFVNAAEESDALAKLRKTIINESLNFKIRDQLVVGQLIPDCYVELEKIILSERKNVPIEFPVIDRKRLLQLVRENQLQLDENELPHAVHFLNESGVLLHFQDPALQLSDLYFVEPKWLCKIMAQILTVKVEGCPKHPKGIISRRDVEKFLSKKRKFPKNYMSQYFKLLEKFQIALPIGEEYLLVPSSLSDHRPVIELPHCENSEIIIRLYEMPYFPMGFWSRLINRLLEISPYMLSGRERALRPNRMYWRQGIYL [chain 1 T164A]
2,~98%,KAVPYNRMKLMIVGNTGSGKTTLLQQLMKTKKSDLGMQSATVGIDVKDWPIQIRDKRKRDLVLNVWDFAGREEFYSTHPHFMTQRALYLAVYDLSKGQAEVDAMKPWLFNIKARASSSPVILVGTHLDVSDEKQRKACMSKITKELLNKRGFPAIRDYHFVNADEESDALAKLRKTIINESLNFKIRDQLVVGQLIPDCYVELEKIILSERKNVPIEFPVIDRKRLLQLVRENQLQLDENELPHAVHFLNESGVLLHFQDPALQLSDLYFVEPKWLCKIMAQILTVKVEGCPKHPKGIISRRDVEKFLSKKRKFPKNYMSQYFKLLEKFQIALPIGEEYLLVPSSLSDHRPVIELPHCENSEIIIRLYEMPYFPMGFWSRLINRLLEISPYMLSGRERALRPNRMYWRQGIYL [chain 1 T164D]
